Results: paper doi:10.1101/2021.05.19.444900 (bioRxiv, 2021)

Biological target: the molecule itself
Assay: SEC

| Protein | binding result |
| --- | --- |
| recombinant NAP1L4 (aa 2-375 of isoform 1) with N-terminal His-tag (natural protein) ADHSFSDGVPSDSVEAAKNASNTEKLTDQVMQNPRVLAALQERLDNVPHTPSSYIETLPKAVKRRINALKQLQVRCAHIEAKFYEEVHDLERKYAALYQPLFDKRREFITGDVEPTDAESEWHSENEEEEKLAGDMKSKVVVTEKAAATAEEPDPKGIPEFWFTIFRNVDMLSELVQEYDEPILKHLQDIKVKFSDPGQPMSFVLEFHFEPNDYFTNSVLTKTYKMKSEPDKADPFSFEGPEIVDCDGCTIDWKKGKNVTVKTIKKKQKHKGRGTVRTITKQVPNESFFNFFNPLKASGDGESLDEDSEFTLASDFEIGHFFRERIVPRAVLYFTGEAIEDDDNFEEGEEGEEEELEGDEEGEDEDDAEINPKV | binds |
| recombinant NAP1L1 (aa 69-391 of isoform 1) with N-terminal His-tag (domain or fragment) SLPRVVKRRVNALKNLQVKCAQIEAKFYEEVHDLERKYAVLYQPLFDKRFEIINAIYEPTEEECEWKPDEEDEISEELKEKAKIEDEKKDEEKEDPKGIPEFWLTVFKNVDLLSDMVQEHDEPILKHLKDIKVKFSDAGQPMSFVLEFHFEPNEYFTNEVLTKTYRMRSEPDDSDPFSFDGPEIMGCTGCQIDWKKGKNVTLKTIKKKQKHKGRGTVRTVTKTVSNDSFFNFFAPPEVPESGDLDDDAEAILAADFEIGHFLRERIIPRSVLYFTGEAIEDDDDDYDEEGEEADEEGEEEGDEENDPDYDPKKDQNPAECKQQ | binds |
